Experimental data reported in patent US20040171074A1, “Structures of substrate binding pockets of SCF complexes” (MOUNT SINAI HOSPITAL, priority 2002, published 2004).
Where a chain is given by its changes, count along the chain named. Numbers in names are those of the source. Entries after “also recorded” stand apart in the source; their conditions may differ.

B1: Y548F: mutant cdc4 polypeptide (protein)
chain: MGSFPLAEFPLRDIPVPYSYRVSGGIASSGSVTALVTAAGTHRNSSTAKTVETEDGEEDIDEYQRKRAAGSGESTPERSDFKRVKHDNHKTLHPVNLQNTGAASVDNDGLHNLTDISNDAEKLLMSVDDGSAAPSTLSVNMGVASHNVAAPTTVNAATITGSDVSNNVNSATINNPMEEGALPLSPTASSPGTTTPLAKTTKTINNNNNIADLIESKDSIISPEYLSDEIFSAINNNLPHAYFKNLLFRLVANMDRSELSDLGTLIKDNLKRDLITSLPFEISLKIFNYLQFEDIINSLGVSQNWNKIIRKSTSLWKKLLISENFVSPKGFNSLNLKLSQKYPKLSQQDRLRLSFLENIFILKNWYNPKFVPQRTTLRGHMTSVITCLQFEDNYVITGADDKMIRVYDSINKKFLLQLSGHDGGVWALKYAHGGILVSGSTDRTVRVWDIKKGCCTHVFKGHNSTVRCLDIVEYKNIKYIVTGSRDNTLHVWKLPKESSVPDHGEEHDYPLVFHTPEENPYFVGVLRGHMASVRTVSGHGNIVVSGSFDNTLIVWDVAQMKCLYILSGHTDRIYSTIYDHERKRCISASMDTTIRIWDLENIWNNGECSYATNSASPCAKILGAMYTLQGHTALVGLLRLSDKFLVSAAADGSIRGWDANDYSRKFSYHHTNLSAITTFYVSDNILVSGSENQFNIYNLRSGKLVHANILKDADQIWSVNFKGKTLVAAVEKDGQSFLEILDFSKASKINYVSNPVNSSSSSLESISTSLGLTRTTIIP
B2: K402A: mutant cdc4 polypeptide (protein)
chain: B1 chain with K402A, F548Y
B3: R443A: mutant cdc4 polypeptide (protein)
chain: B1 chain with R443A, F548Y
B4: W717N: mutant cdc4 polypeptide (protein)
chain: B1 chain with F548Y, W717N
B5: R572A: mutant cdc4 polypeptide (protein)
chain: B1 chain with F548Y, R572A
B6: Y574F: mutant cdc4 polypeptide (protein)
chain: B1 chain with F548Y, Y574F
B7: T441I/T465I: double mutant cdc4 polypeptide (protein)
chain: B1 chain with T441I, T465I, F548Y

What was measured:
cdc4Δ strain = test: plasmid shuffle assay: complementation of a cdc4Δ strain by CDC4 alleles; format: cell-based, yeast; settings: viability of cdc4Δ strain on 5-FOA, 2 days at 30° C.
Procedure: (§1) All mutants on a TRP1 ARS CEN plasmid were transformed into a cdc4Δ strain (MT 1259) containing a wildtype copy of CDC4 on a URA3 ARS CEN plasmid. Cells were plated on either Trp^−Ura^− or 5-FOA medium for 2 days at 30° C. Viable cells on 5-FOA were grown in Trp medium and transformed with either wild type GAL1-SIC1, GAL1-SIC T45A, or GAL1-SIC T33V on a LEU2 ARS CEN pasmid. Cells were then plated on Leu- Trp-plates containing either glucose or galactose and incubated for 2 days at 30° C.
(§2) Cdc4 functional assays. CDC4 mutant alleles were assessed for complementation of a cdc4A strain in a plasmid shuffle assay (Nash et al., 2001). Sensitivity to SIC1 dosage was determined by transformation with pMT837 (GAL1-SIC1) or pMT767 (GAL1-SIC1^T33V) and plating on glucose medium or galactose medium. For in vitro capture of phospho-Sic1 by Cdc4, 0.5 μg of bacterially-expressed ^HIS6Sic1 was phosphorylated with immobilized Cln2-Cdc28 kinase from baculovirus-infected Sf9 cells and then incubated with 1 μg of immobilized wild type or mutant Cdc4^263-744-GST-Skp1, at 4° C. for 1 hr, washed 4 times and visualized by anti-Sic1 immunoblot. For isoelectric focusing (IEF)-2D gel analyses, an evenly distributed pool of phospho-Sic1 isoforms was generated by combining different time points in a Sic1 phosphorylation reaction. 2.5 μg of the phospho-Sic1 pool was bound to 5 μg of immobilized wild type or mutant Cdc4^1-744-GST-Skp1. Captured isoforms were separated by denaturing IEF-2D gel electrophoresis using pH3-10NL Immobiline gel strips (Amersham) and visualized by anti-Sic1 immunoblot. Alternatively, the pool of phospho-Sic1 isoforms was incubated in solution with a ubiquitination reaction mix containing ATP, ubiquitin, yeast E1, Cdc34 and either wild type or mutant SCF^Cdc4 complex, composed of a 1:1 ratio of bacterial Cdc4-GST-Skp1 and insect cell-produced Cdc53-Rbx1, at 30° C. for 1 h as previously described (Nash et al., 2001).

phospho-Sic1 = test: P-Sic1 pull down: in vitro capture of phospho-Sic1 on immobilized wild type or mutant Cdc4-GST-Skp1, anti-Sic1 immunoblot; format: binding, yeast; settings: Sic1 phosphorylated with Cln2-Cdc28, captured onto GST-Skp1/Cdc4 resin, anti-Sic1 detection
Procedure: (§3) Mutational analysis of the CPD binding surface. Mutants were tested in vitro by ability to bind phosphorylated Sic1 and then captured onto GST-Skp1/Cdc4 resin and detected with anti-sic1 antibody. Mutants were tested in vivo by ability to degrade GAL1-SIC1 or various phosphorylation mutants. Sites are as follows: 3=Thr 33, Thr 45, Ser 76; 4=Thr 5, Thr 33, Thr 45, Ser 76; 5=Thr 2, Thr 5, Thr 33, Thr 45, Ser 76; 6=Thr 2, Thr 5, Thr 33, Thr 45, Ser 69, Ser 76; 7=Thr 2, Thr 5, Thr 33, Thr 45, Ser 69, Ser 76, Ser 80. GAL1-SIC1 plasmids were transformed into a cdc4Δ strain containing a copy of CDC4 on a TRP1 ARS CEN plasmid. Strains were incubated for 2 days at 30° C.
Bacterially expressed His6-Sic1 was phosphorylated with Cln2-Cdc28 kinase purified from baculovirus infected Sf9 cells as described before (Nature paper). 1 ug of WT or mutant Cdc4-GST-Skp1, immoblized on GSH-Sepharose resin, was incubated with 0.5 ug phospho-Sic1 at 4 C for 1 h and washed 4 times. Captured complexes were resolved on SDS-PAGE and Sic1 visualized by anti-Sic1 Western blotting and ECL. For IEF-2D analysis, several Sic1 phosphorylation reactions were carried out for different time periods to obtain a spectrum of Sic1 that were phosphorylated at different numbers of its nine CDK sites. This pool of phospho-Sic1 (2.5 ug) was incubated with 5 μg of WT or mutant Cdc4-GST-Skp1 as described above. Different phosphorylation states of Sic1 were separated by denaturing isoelectric focusing (IEF)-2D gel electrophoresis and visualized by anti-Sic1 Western blotting and ECL. IEF was performed using pH 3-10NL Immobiline gel strips and IPGphore IEF system (Amersham pharmacia).
as §2

[1] = system: cdc4Δ strain overexpressing SIC1; test: sensitivity to SIC1 dosage: GAL1-SIC1 overexpression in strains bearing CDC4 alleles; format: cell-based, yeast; settings: for gal Sic1T33V: GAL1-SIC1 T33V (partially stabilized Sic1); for gal Sic1T33V / gal Sic1T45A / gal Sic1 wt: galactose, 2 days at 30° C.; for gal Sic1T45A: GAL1-SIC1 T45A; for gal Sic1 wt: GAL1-SIC1 wild type; for viability / sensitivity to increased SIC1 dosage: Sic1 wt or stabilized Sic1(T33V) or Sic1(T45A) over-expressed under a galactose promoter
Procedure: as §3, §1
Since the cell viability assay nay be masking subtle functional roles for the conserved Cdc4 residues, function was assayed in vivo under more stringent conditions in which Sic1 wt or the stabilized mutants, Sic1 (T33V) or Sic1(T45A) are over-expressed under a galactose promoter. This should amplify defects in cdc4 function. Under these conditions, Trp 717, Tyr 548 and the double mutant K404D/R443D are lethal showing that these residues are in fact important for functions
as §2

| Molecule | shuffle (cdc4Δ strain) | P-Sic1 pull down (phospho-Sic1) | gal Sic1T33V [1] | gal Sic1T45A [1] | gal Sic1 wt [1] | viability / sensitivity to increased SIC1 dosage [1] | also measured |
| --- | --- | --- | --- | --- | --- | --- | --- |
| B1 | alive | no bind | dead | dead | alive | lethal | shuffle (cdc4Δ strain; listed as Tyr 548): fractional; shuffle (cdc4Δ strain; listed as Tyr548): did not cause loss of viability; P-Sic1 pull down (phospho-Sic1; listed as Tyr 548): compromised; gal Sic1T33V ([1]; listed as Tyr548): dosage sensitivity |
| B2 | alive | bind | alive | dead | alive | indistinguishable from wild type | shuffle (cdc4Δ strain; listed as Lys402Ala): viable; also recorded: indistinguishable from wild type; P-Sic1 pull down (phospho-Sic1; listed as Lys402Ala): fully competent; also recorded: indistinguishable from wild type |
| B3 | alive | bind | alive | dead | alive | indistinguishable from wild type | shuffle (cdc4Δ strain; listed as Arg443Ala): viable; also recorded: indistinguishable from wild type; P-Sic1 pull down (phospho-Sic1; listed as Arg443Ala): fully competent; also recorded: indistinguishable from wild type |
| B4 | alive | bind | dead | dead | alive | lethal | shuffle (cdc4Δ strain; listed as Trp717): viable; P-Sic1 pull down (phospho-Sic1; listed as Trp717): fully competent; P-Sic1 pull down (phospho-Sic1; listed as Trp717Asn): did not overtly affect; gal Sic1T33V ([1]; listed as Trp717Asn): conferred sensitivity |
| B5 | alive | no bind | dead | dead | alive | – | shuffle (cdc4Δ strain; listed as Arg572): same behavior; P-Sic1 pull down (phospho-Sic1; listed as Arg572): inablity to bind; gal Sic1T33V ([1]; listed as Arg 572): same effect |
| B6 | alive | bind | alive | dead | alive | indistinguishable from wild type | shuffle (cdc4Δ strain; listed as Tyr574Ala): viable; shuffle (cdc4Δ strain; listed as Tyr574Phe): indistinguishable from wild type; P-Sic1 pull down (phospho-Sic1; listed as Tyr574Ala): fully competent; P-Sic1 pull down (phospho-Sic1; listed as Tyr574Phe): indistinguishable from wild type |
| B7 | viable | fully competent | – | – | – | – | – |
